Patent publication US20210347914A1 (BANYAN BIOMARKERS, published 2021)

Biological target: T1, Polyhistidine-tagged recombinant human GFAP expressed from E. coli (human, UniProt P14136 1-432)
T1 construct: also called His-tagged GFAP; not shown: polyhistidine tag
Assay: BLI (Octet QKe); His-tagged GFAP on anti-Penta-HIS sensor, antibody in solution
Method: The rates of association (kₒₙ) and dissociation (koff) of the anti-GFAP antibodies were determined by bio-layer interferometry using an Octet QK^e instrument according to the manufacturer's instructions (ForteBio). See Tobias et al., Biomolecular Binding Kinetic Assays in the Octet Platform, Application Note 14, ForteBio, Div. of Pall Life Sciences, 2013. Polyhistidine-tagged recombinant human GFAP expressed from E. coli was used as the antigen. The antigen was bound at a concentration of 8.3 μg/ml to an anti-Penta-HIS(HIS1K) capture biosensor containing an anti-histidine antibody (ForteBio) for use with the Octet QK^e instrument.

T1 sequence (P14136 whole entry): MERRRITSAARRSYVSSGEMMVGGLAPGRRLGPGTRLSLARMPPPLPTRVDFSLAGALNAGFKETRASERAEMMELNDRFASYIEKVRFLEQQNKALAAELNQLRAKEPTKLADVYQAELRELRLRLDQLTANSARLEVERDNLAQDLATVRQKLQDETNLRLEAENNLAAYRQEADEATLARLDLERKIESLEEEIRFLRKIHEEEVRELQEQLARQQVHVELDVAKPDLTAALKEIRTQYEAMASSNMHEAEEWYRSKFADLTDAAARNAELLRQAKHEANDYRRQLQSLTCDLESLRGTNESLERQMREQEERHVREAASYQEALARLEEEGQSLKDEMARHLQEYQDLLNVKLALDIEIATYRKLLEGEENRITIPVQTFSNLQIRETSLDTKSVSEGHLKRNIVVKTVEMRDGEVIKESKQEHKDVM

Binder | Kd [pM] | koff [s⁻¹] | kon [M⁻¹ s⁻¹]
GFAP-3 (antibody, V domains shown, also called mouse anti-GFAP antibody GFAP-3) VH: EVKLEESGGGLVQPGGSMKLSCVASGFTFTNYWMSWVRQSPEKGLEWVAQIRLKSDNYATHYAESVKGRFTISRDDSKSSVYLQMNNLRAEDTGIYYCTGGEFLSWFAYWGQGTLVTVSA VL: DIVMSQSPSSLAVSAGEKVTMSCKSSQSLFNSRTRKNYLAWYQQKPGQSPKLLIYWASTRESGVPDRFTGSGSGTDFTLTISSVQAEDLAVYYCKQSYYLYTFGSGTKLEIK | 12000 | 0.000698 | 58000
GFAP-7 (antibody, V domains shown, Same variable domains as GFAP-8; also called mouse anti-GFAP antibody GFAP-7) VH: EVQLLQSGTVLARPGASVKMSCKASGYSFTSYWMHWIKQRPGQGLEWIGAIHPGNRDTSYNQKFKDKAKLTAVTSASTAYMELSSLTNEDSAVYFCTREDYWGQGTTLTVSS VL: not shown | 856 | 5.8e-05 | 67800
GFAP-4 (antibody, V domains shown, also called mouse anti-GFAP antibody GFAP-4) VH: EVQLLQSGTVLARPGASVKMSCKASGYSFTSYWMHWIKQRPGQGLEWIGAIHPGNRDTSYNQKFKDKAKLTAVTSASTAYMELSSLTNEDSAVYFCTREDYWGQGTTLTVSS VL: not shown | 2930 | 0.000158 | 53700
GFAP-17 (antibody, V domains shown, also called mouse anti-GFAP antibody GFAP-17) VH: EVKLEESGGGLVQPGGSMKLSCVASGFTFSYYWMSWVRQSPEKGLEWIAEIRLKSNIYATHYAASVKGRFTISRDDSKSSVYLQMNNLRAEDTGIYFCTRFGTGAMDYWGQGTSVTVSS VL: DIVMSQSPSSLAVSVGEKVTMSCKSSQSLLYRTNQKNYLAWYQQKPGQSPKLLIYWASSRESGVPDRFSGSGSGTDFTLTISSVKAEDLAVYYCQQYYSYPWTFGGGTKLEIK | 208 | 1.8e-05 | 86600
GFAP-11 (antibody, V domains shown, also called mouse anti-GFAP antibody GFAP-11) VH: QIQLVQSGPELKKPGETVKISCKASGYTFTNYGMNWVKQAPGEGLKWMGWINTNIGEPTYAEEFKGRFAFSLEASASTAYLQINNLKNEDTATYFCARWKNYGYFDYWGQGTTLTVSS VL: QIVLTQSPAIMSASLGERVTMTCTASSSVSSSYLHWYQQKPGSSPKLWIYSTSNLASGVPARFSGSGSGTSYSLTISSLEAEDAATYYCHQYHRSPYTFGGGTKLEIK | 396 | 0.000125 | 315000
GFAP-19 (antibody, V domains shown, also called mouse anti-GFAP antibody GFAP-19) VH: EVQLVESGGGLVKPGGSPKLSCAASGFAFSSYDMSWVRQTPEKRLEWVAYISSGGGSTYYPDTMKGRFTISRDNAKNTLYLQMSSLKSEDTAMYYCARHYGTYLYYLDYWGQGTTLTVSS VL: DIVLTQSPATLSVTPGDRVSLSCRASQNISDFLHWYQQKSHESPRLLIKYASQSISGIPSRFSGSGSGSDFTLSINSVEPEDVGVYYCQNGHSFPPTFGGGTKLEIK | 423 | 6.4e-05 | 151000
GFAP-1 (antibody, V domains shown, also called mouse anti-GFAP antibody GFAP-1) VH: EVHLQQSGTVLARPGASVKMSCKASGYSFTSYWMHWVKQRPGQGLEWIGAFYPENSDTNYNQKFKGKARLTAVTSANTAYMELNSLTNEDSAVYYCTRPLLFSAYFDFWGQGTTLTVSS VL: DVLMTQTPLSLPVSLGDQASISCRSSQSIVHSYGNTYLEWYLQKPGLSPKLLIYKVSNRFSGVPDRFSGSGSGTDFTLTISRVEAEDLGVYYCFQGSHVPYTFGGGTKLEIK | 10.7 | 1.7e-06 | 162000
GFAP-15 (antibody, V domains shown, also called mouse anti-GFAP antibody GFAP-15) VH: DVQLVESGGGLLEPGGSRKLSCAASGFTFSSFGMHWVRQAPEKGLEWVAYISSGSRTIFYADTVKGRFTISRDNPKNTLFLQMTSLRSGDTAMYYCVRGGYGSSFDYWGQGTTLTVSS VL: DVVMTQTPLSLPVSLGDQASISCRSSQSLVYSNGNIYLHWYLQKPGQSPKLLIYKVSNRFSGVPDRFSGSGSGTDFTLKISRVEAEDLGVYFCSQSTHVPYTFGGGTKLEIK | 202 | 0.000231 | 1.15e+06
GFAP-2 (antibody, V domains shown, also called mouse anti-GFAP antibody GFAP-2) VH: DVQLVESGGGLVQPGGSRKLSCAASGFTFSSFGMHWVRQAPEKGLEWVAYISSGSSIIYYADTVKGRFTISRDNPKNTLFLQMTSLRSEDTAMYYCTGSDWGSFAYWGQGTLVTVSA VL: DVVMTQTPLSLPVSLGDQASISCRSSQSLVYSNGNTYLHWYLQKPGQSPKLLIYKVSNRFFGVPDRFSGSGSGTDFTLKISRVEAEDLGVYFCSQSTHVPYTFGGGTKLEIK | 55.7 | 3.3e-05 | 593000
GFAP-5 (antibody, V domains shown, also called mouse anti-GFAP antibody GFAP-5) VH: EVQLVESGGGLVKPGGSLKLSCAASGFTFSAYGMHWVRQAPEKGLEWIAYISSGSSTIYYADTVKGRFTISRDNAKNTLFLQMTSLRSEDTAMYYCASSYALDYWGQGTSVTVSS VL: DVVMTQTPLSLPVSLGDQASISCRSSQSLVYSNGNTYLHWYLQKPGQSPKLLIYKVSNRFSGVPDRFSGSGSGTDFTLKISRVEAEDLGVYFCSQSTHVPYTFGSGTKLEIK | 5360 | 0.000107 | 20000
GFAP-13 (antibody, V domains shown, also called mouse anti-GFAP antibody GFAP-13) VH: EVLLQQSGPELVKPGASVKMSCKTSGYTFANYIMHWVKQTPGQGLEWIGFINPYNDYTEYNEKFKGKATLTSDKSSSTAYMEFSGLTSEDSAVYYCSTATFAYWGQGTLVTVSA VL: not shown | 600 | 0.000194 | 324000
GFAP-18 (antibody, V domains shown, also called mouse anti-GFAP antibody GFAP-18) VH: EVILVESGGGLVKPGGSLKVSCAVSGFTFSNFAMSWVRQTPEKRLEWVASISSGGTTYYPDNVKGRFTISRDNARNIMYLQMSSLRSEDTAMYFCARGGLHYFGYWGQGTTLTVSS VL: DIVMTQSHKFMSTSVGDRVSITCKASQDVNTAVAWYQQKPGQSLKLLIYSASYRYIGVPDRFTGSGSGTDFTFTINSVQAEDLAVYYCHQYYSTPLTFGTGTKLELK | 73.7 | 2.5e-05 | 344000
GFAP-16 (antibody, V domains shown, also called mouse anti-GFAP antibody GFAP-16) VH: QVQLQQSDAELVKPGASVKISCKASGYTFTDHTIHWVKQRPEQGLEWIGYIYPGDGSTKYNEKFKGKATLTADKSSSTVYMQLNSLTSEDSAVYFCARPAPYWNFDVWGAGTTVTVSS VL: DIQMTQSPSSLSASLGGKVTITCKASQDIKKNIAWYQHKPGKGPRLLIWYTSTLQPGIPSRFSGSGSGRDYSFSISNLEPEDIATYYCLQYDHLRTFGGGTKLEIK | 273 | 4.7e-05 | 173000
GFAP-12 (antibody, V domains shown, also called mouse anti-GFAP antibody GFAP-12) VH: QVQLQQSGAELMKPGASVKISCKATGYTFSNYWIEWVKQRPGHGLEWIGEILPGSGSTNYNEKFKGKATFTADTSSNTAYMQLSSLTSEDSAVYYCAIYYGNYAGAMDYWGQGTSVTVSS VL: DIQMTQSPASLSASVGETVTITCRASENIYSYLAWYQQKQGKSPQLLVYNAKTLAEGVPSRFSGSGSGTQFSLKINSLQPEDFGSYYCQLHYGTPYTFGSGTKLEIK | 13300 | 0.00024 | 18000
GFAP-14 (antibody, V domains shown, also called mouse anti-GFAP antibody GFAP-14) VH: DVQLVESGGGSVQPGGSRKLSCAASGFTFSSFGMHWVRQAPEKGLEWVAYISSDSNTVYYADTVKGRFTISRDNPKNTLFLQMTSLRSEDTAMYYCARYAMDYWGQGTSVTVSS VL: QIVLTQSPALMSASPGEKVTMTCSASSSVSYMYWYQQKPRSSPKPWIYLTSNLASGVPARFSGSGSGTSYSLTISSMEAEDAATYYCQQWSSNPPTFGAGTKLELK | 280 | 8.4e-05 | 299000
